From paper PMC10018359, “Allosteric effects of E. coli SSB and RecR proteins on RecO protein binding to DNA” (Nucleic Acids Research, 2023)

B2: Escherichia coli RecO protein (natural protein, E. coli, UniProt P0A7H3 1-242, looked up)
chain: MEGWQRAFVLHSRPWSETSLMLDVFTEESGRVRLVAKGARSKRSTLKGALQPFTPLLLRFGGRGEVKTLRSAEAVSLALPLSGITLYSGLYINELLSRVLEYETRFSELFFDYLHCIQSLAGVTGTPEPALRRFELALLGHLGYGVNFTHCAGSGEPVDDTMTYRYREEKGFIASVVIDNKTFTGRQLKALNAREFPDADTLRAAKRFTRMALKPYLGGKPLKSRELFRQFMPKRTVKTHYE
notes: RecO, recombination mediator protein of the RecF pathway, E. coli; also called E. coli RecO; source: E. coli BL21(DE3) pLysS, plasmid pMCSG7, purified (Ni-NTA, HiTrap Heparin HP) after His-tag cleavage with TEV protease
B3: Escherichia coli RecR protein (natural protein, E. coli, UniProt P0A7H6 1-201, looked up)
chain: MQTSPLLTQLMEALRCLPGVGPKSAQRMAFTLLQRDRSGGMRLAQALTRAMSEIGHCADCRTFTEQEVCNICSNPRRQENGQICVVESPADIYAIEQTGQFSGRYFVLMGHLSPLDGIGPDDIGLDRLEQRLAEEKITEVILATNPTVEGEATANYIAELCAQYDVEASRIAHGVPVGGELEMVDGTTLSHSLAGRHKIRF
notes: RecR, recombination mediator protein, E. coli; in the complex with RecO found here it is a tetramer (RecR4O); also called E. coli RecR; source: E. coli BL21 Rosetta 2(DE3)pLysS, plasmid pMCSG7, purified (Ni-NTA), His-tag cleaved with TEV protease

Experiments:
[1] = molecular target: SSB-Ct peptide C-terminal tail (Escherichia coli) (UniProt P0AGE0); assay: given as Ka; conditions: cited from earlier work
Sequence of SSB-Ct peptide C-terminal tail (Escherichia coli) (P0AGE0 whole entry, looked up): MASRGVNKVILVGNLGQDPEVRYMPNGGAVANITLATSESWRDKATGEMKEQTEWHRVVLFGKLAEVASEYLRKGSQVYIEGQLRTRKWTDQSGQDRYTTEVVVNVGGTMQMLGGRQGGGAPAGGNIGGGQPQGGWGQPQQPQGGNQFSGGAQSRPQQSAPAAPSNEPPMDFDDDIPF

RecO;RecR [2] = molecular target: T1, RecO;RecR (Escherichia coli;Escherichia coli, UniProt P0A7H3;P0A7H6 1-242;1-201, |); assay: AUC sedimentation velocity; no SSB-Ct; 6.3 S; Buffer BTP: 20 mM Bis-Tris propane pH 8.0, 50 mM NaCl, 25% (v/v) glycerol, 1 mM TCEP, 25 C; conditions: protein: recombinant;recombinant; tags: His-tag cleaved with TEV (pMCSG7);His-tag cleaved with TEV (pMCSG7); label: 3'-Cy3
T1 sequence 1: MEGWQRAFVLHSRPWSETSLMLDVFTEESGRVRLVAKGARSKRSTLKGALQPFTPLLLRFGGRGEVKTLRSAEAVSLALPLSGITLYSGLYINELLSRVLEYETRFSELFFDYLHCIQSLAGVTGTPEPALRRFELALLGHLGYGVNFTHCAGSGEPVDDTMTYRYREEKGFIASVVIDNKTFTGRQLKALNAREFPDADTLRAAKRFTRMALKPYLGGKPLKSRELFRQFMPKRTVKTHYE
T1 sequence 2: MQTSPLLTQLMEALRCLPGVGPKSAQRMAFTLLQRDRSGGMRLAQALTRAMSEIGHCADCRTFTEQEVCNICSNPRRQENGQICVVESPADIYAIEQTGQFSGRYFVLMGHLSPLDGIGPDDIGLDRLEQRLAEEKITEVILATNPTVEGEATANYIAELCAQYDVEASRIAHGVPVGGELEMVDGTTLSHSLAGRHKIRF

[3] = molecular target: T2, RecO;SSB-Ct peptide (P15) (Escherichia coli;Escherichia coli, UniProt P0A7H3;P0AGE0 1-242;, |); assay: AUC sedimentation velocity; 13.4 uM SSB-Ct; 1.9 S; Buffer BTP: 20 mM Bis-Tris propane pH 8.0, 50 mM NaCl, 25% (v/v) glycerol, 1 mM TCEP, 25 C; conditions: tags: His-tag cleaved with TEV (pMCSG7);; copies: 1;1; label: 3'-Cy3
[4] = molecular target: T3, RecO;RecR;SSB-Ct peptide (P15) (Escherichia coli;Escherichia …, UniProt P0A7H3;P0A7H6;P0AGE0 1-242;1-201;, ||); assay: AUC sedimentation velocity; 13.4 uM SSB-Ct; 4.7 S; Buffer BTP: 20 mM Bis-Tris propane pH 8.0, 50 mM NaCl, 25% (v/v) glycerol, 1 mM TCEP, 25 C; conditions: tags: His-tag cleaved with TEV (pMCSG7);His-tag cleaved with TEV (pMCSG7);; label: 3'-Cy3
[5] = molecular target: B3; assay: AUC; sedimentation equilibrium, 18 000, 23 000 and 28 000 rpm, 25°C, buffer BTP; RecO 2.24 uM, RecR 8.96 uM, SSB-Ct 13.4 uM, Cy3-(dT)15 0.56 uM; absorbance of the Cy3-DNA at 546 nm; one-species fit; conditions: both partners purified
[6] = molecular target: the molecule itself; assay: as above
[7] = molecular target: B2; assay: AUC; sedimentation velocity, 42,000 rpm, 25°C, buffer BTP; RecO 2.24 uM, RecR 8.96 uM, Cy3-(dT)L (L = 15, 35, 68, 140) 0.56 uM, in the absence and presence of SSB-Ct 13.4 uM; absorbance of the Cy3-DNA at 546 nm; c(s) distributions; conditions: both partners purified
RecO;RecR [8] = molecular target: T1, RecO;RecR; assay: AUC sedimentation velocity; no SSB-Ct; 5.7 S; Buffer BTP: 20 mM Bis-Tris propane pH 8.0, 50 mM NaCl, 25% (v/v) glycerol, 1 mM TCEP, 25 C; conditions: protein: recombinant;recombinant; tags: His-tag cleaved with TEV (pMCSG7);His-tag cleaved with TEV (pMCSG7); label: 3'-Cy3
[9] = molecular target: T2, RecO;SSB-Ct peptide (P15); assay: AUC sedimentation velocity; 13.4 uM SSB-Ct; 2.1 S; Buffer BTP: 20 mM Bis-Tris propane pH 8.0, 50 mM NaCl, 25% (v/v) glycerol, 1 mM TCEP, 25 C; conditions: tags: His-tag cleaved with TEV (pMCSG7);; copies: 1;1; label: 3'-Cy3
[10] = molecular target: T3, RecO;RecR;SSB-Ct peptide (P15); assay: AUC sedimentation velocity; 13.4 uM SSB-Ct; 4.8 S; Buffer BTP: 20 mM Bis-Tris propane pH 8.0, 50 mM NaCl, 25% (v/v) glycerol, 1 mM TCEP, 25 C; conditions: tags: His-tag cleaved with TEV (pMCSG7);His-tag cleaved with TEV (pMCSG7);; label: 3'-Cy3
[11] = molecular target: B2; assay: AUC; sedimentation equilibrium, 18 000, 23 000 and 28 000 rpm, 25°C, buffer BTP (pH 8.0, 50 mM NaCl, 25% glycerol, 1 mM TCEP); RecO 2.24 uM, SSB-Ct 13.4 uM, Cy3-(dT)15 or Cy3-(dT)35 0.56 uM; absorbance of the Cy3-DNA at 546 nm; one-species fit; conditions: both partners purified
RecO;RecR [12] = molecular target: T1, RecO;RecR; assay: AUC sedimentation velocity; no SSB-Ct; 2.9 S; Buffer BTP: 20 mM Bis-Tris propane pH 8.0, 50 mM NaCl, 25% (v/v) glycerol, 1 mM TCEP, 25 C; conditions: protein: recombinant;recombinant; tags: His-tag cleaved with TEV (pMCSG7);His-tag cleaved with TEV (pMCSG7); label: 3'-Cy3
[13] = molecular target: T2, RecO;SSB-Ct peptide (P15); assay: AUC sedimentation velocity and equilibrium; 13.4 uM SSB-Ct; 0.7 S; 31.8 kDa, 1 RecO per DNA; Buffer BTP: 20 mM Bis-Tris propane pH 8.0, 50 mM NaCl, 25% (v/v) glycerol, 1 mM TCEP, 25 C; conditions: tags: His-tag cleaved with TEV (pMCSG7);; copies: 1;1; label: 3'-Cy3
[14] = molecular target: T3, RecO;RecR;SSB-Ct peptide (P15); assay: AUC sedimentation velocity and equilibrium; 13.4 uM SSB-Ct; 2.6 S; 131.1 kDa, RecR4O with one DNA; Buffer BTP: 20 mM Bis-Tris propane pH 8.0, 50 mM NaCl, 25% (v/v) glycerol, 1 mM TCEP, 25 C; conditions: tags: His-tag cleaved with TEV (pMCSG7);His-tag cleaved with TEV (pMCSG7);; label: 3'-Cy3
RecO = molecular target: T4, RecO (Escherichia coli, UniProt P0A7H3 1-242); assay: light scattering; no SSB-Ct; onset at RecO/DNA 6; Buffer BTP: 20 mM Bis-Tris propane pH 8.0, 50 mM NaCl, 25% (v/v) glycerol, 1 mM TCEP, 25 C; conditions: protein: recombinant; tags: His-tag cleaved with TEV (pMCSG7)
T4 sequence: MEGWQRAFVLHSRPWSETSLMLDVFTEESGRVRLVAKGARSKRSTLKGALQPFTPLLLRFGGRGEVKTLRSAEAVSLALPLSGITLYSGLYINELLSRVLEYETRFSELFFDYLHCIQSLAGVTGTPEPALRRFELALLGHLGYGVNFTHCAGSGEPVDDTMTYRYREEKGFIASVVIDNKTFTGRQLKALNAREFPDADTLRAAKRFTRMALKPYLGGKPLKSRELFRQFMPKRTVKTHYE

RecO;RecR [15] = molecular target: T1, RecO;RecR; assay: AUC sedimentation velocity; no SSB-Ct; 5.4 S; Buffer BTP: 20 mM Bis-Tris propane pH 8.0, 50 mM NaCl, 25% (v/v) glycerol, 1 mM TCEP, 25 C; conditions: protein: recombinant;recombinant; tags: His-tag cleaved with TEV (pMCSG7);His-tag cleaved with TEV (pMCSG7); label: 3'-Cy3
[16] = molecular target: T3, RecO;RecR;SSB-Ct peptide (P15); assay: AUC sedimentation velocity; 13.4 uM SSB-Ct; 3.8 S; Buffer BTP: 20 mM Bis-Tris propane pH 8.0, 50 mM NaCl, 25% (v/v) glycerol, 1 mM TCEP, 25 C; conditions: tags: His-tag cleaved with TEV (pMCSG7);His-tag cleaved with TEV (pMCSG7);; label: 3'-Cy3
[17] = molecular target: T2, RecO;SSB-Ct peptide (P15); assay: AUC sedimentation velocity and equilibrium; 13.4 uM SSB-Ct; 1.2 S; 70.1 kDa, 2 RecO per DNA; Buffer BTP: 20 mM Bis-Tris propane pH 8.0, 50 mM NaCl, 25% (v/v) glycerol, 1 mM TCEP, 25 C; conditions: tags: His-tag cleaved with TEV (pMCSG7);; copies: 1;1; label: 3'-Cy3

For RecO (from UniProt P0A7H3), the Kd [1] is listed as 83.3 nM.

B1: Cy3-(dT)68 (ssDNA)
DNA: TTTTTTTTTTTTTTTTTTTTTTTTTTTTTTTTTTTTTTTTTTTTTTTTTTTTTTTTTTTTTTTTTTTT
B1: binds (RecO;RecR [2]); binds [3]; binds [4].

With B2 the “stoichiometry N” value [5] was 1 RecO per RecR tetramer.

With B3 the “stoichiometry N” value [6] was 4 and the binding result [7] was “binds”.

B4: Cy3-(dT)140 (ssDNA)
DNA: TTTTTTTTTTTTTTTTTTTTTTTTTTTTTTTTTTTTTTTTTTTTTTTTTTTTTTTTTTTTTTTTTTTTTTTTTTTTTTTTTTTTTTTTTTTTTTTTTTTTTTTTTTTTTTTTTTTTTTTTTTTTTTTTTTTTTTTTTTTT
B4: binds (RecO;RecR [8]); binds [9]; binds [10].

B5: SSB-Ct peptide, composed of the 15 C-terminal amino acids of E. coli SSB (peptide)
peptide: PSNEPPMDFDDDIPF
notes: source: bought: WatsonBio (Houston, TX)
B5: binds [11].

B6: Cy3-(dT)15 (ssDNA)
DNA: TTTTTTTTTTTTTTT
B6: binds (RecO;RecR [12]); binds [13]; binds [14].

B7: (dT)70 (ssDNA)
DNA: TTTTTTTTTTTTTTTTTTTTTTTTTTTTTTTTTTTTTTTTTTTTTTTTTTTTTTTTTTTTTTTTTTTTTT
B7: binds (RecO).

B8: Cy3-(dT)35 (ssDNA)
DNA: TTTTTTTTTTTTTTTTTTTTTTTTTTTTTTTTTTT
B8: binds (RecO;RecR [15]); binds [16]; binds [17].
